Data taken from PMC9482650, “Quantitative fragmentomics allow affinity mapping of interactomes” (Nature Communications, 2022).

T1: ARHGEF11, O15085
T1 sequence (O15085 42-136, limits assumed, looked up): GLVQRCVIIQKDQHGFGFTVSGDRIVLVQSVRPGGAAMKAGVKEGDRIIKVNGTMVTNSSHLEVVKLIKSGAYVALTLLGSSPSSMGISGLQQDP

T2: MPP2, Q14168
T2 sequence (Q14168 180-250, limits assumed, looked up): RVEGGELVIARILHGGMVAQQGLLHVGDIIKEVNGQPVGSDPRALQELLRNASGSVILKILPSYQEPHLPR

T3: RADIL, Q96JH8
T3 sequence (Q96JH8 971-1071, limits assumed, looked up): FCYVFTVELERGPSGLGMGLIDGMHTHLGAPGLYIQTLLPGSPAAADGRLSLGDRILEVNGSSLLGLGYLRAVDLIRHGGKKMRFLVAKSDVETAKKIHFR

T4: LNX2_2, Q8N448
T4 sequence (Q8N448 334-432, limits assumed, looked up): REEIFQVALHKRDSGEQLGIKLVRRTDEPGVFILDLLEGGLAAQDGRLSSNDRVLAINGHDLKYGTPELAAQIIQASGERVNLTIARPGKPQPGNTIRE

T5: GRIP1_4, Q9Y3R0
T5 sequence (Q9Y3R0 467-571, limits assumed, looked up): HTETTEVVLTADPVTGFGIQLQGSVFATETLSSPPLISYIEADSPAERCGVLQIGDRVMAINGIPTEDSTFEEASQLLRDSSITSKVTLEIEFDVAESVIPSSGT

T6: LNX2_3, Q8N448
T6 sequence (Q8N448 463-564, limits assumed, looked up): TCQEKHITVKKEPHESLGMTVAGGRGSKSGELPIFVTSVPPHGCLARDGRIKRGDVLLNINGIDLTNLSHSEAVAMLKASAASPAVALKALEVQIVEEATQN

T7: DLG3_3, Q92796
T7 sequence (Q92796 374-475, limits assumed, looked up): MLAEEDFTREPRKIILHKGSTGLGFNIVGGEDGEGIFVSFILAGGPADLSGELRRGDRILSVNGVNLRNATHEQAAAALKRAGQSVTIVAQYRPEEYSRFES

T8: NHERF3_1, Q5T2W1
T8 sequence (Q5T2W1 4-100, limits assumed, looked up): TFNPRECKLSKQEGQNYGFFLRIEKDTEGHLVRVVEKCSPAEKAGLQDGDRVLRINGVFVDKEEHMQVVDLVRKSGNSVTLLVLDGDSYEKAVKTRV

T9: LIN7B, Q9HAP6
T9 sequence (Q9HAP6 88-185, limits assumed, looked up): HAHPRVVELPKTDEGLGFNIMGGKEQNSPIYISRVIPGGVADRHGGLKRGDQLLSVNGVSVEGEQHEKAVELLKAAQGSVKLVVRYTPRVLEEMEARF

T10: DVL3, Q92997
T10 sequence (Q92997 244-331, limits assumed, looked up): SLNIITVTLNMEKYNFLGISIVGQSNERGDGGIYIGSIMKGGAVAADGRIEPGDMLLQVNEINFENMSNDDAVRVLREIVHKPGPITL

T11: GRIP1_5, Q9Y3R0
T11 sequence (Q9Y3R0 568-668, limits assumed, looked up): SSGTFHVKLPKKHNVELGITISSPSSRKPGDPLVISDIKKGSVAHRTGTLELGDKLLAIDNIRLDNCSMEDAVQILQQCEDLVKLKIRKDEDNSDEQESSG

T12: TIAM2, Q8IVF5
T12 sequence (Q8IVF5 885-986, limits assumed, looked up): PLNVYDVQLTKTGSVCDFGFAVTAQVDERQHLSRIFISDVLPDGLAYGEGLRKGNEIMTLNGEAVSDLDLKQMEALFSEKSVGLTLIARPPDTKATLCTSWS


molecular target: DLG1_2, Q12959; test: holdup assay; parameters: key: below the threshold = too weak to quantify, mostly under pKd 3.1 to 4; conditions: plain residues with an end cap or a label only (N-terminal biotin on a linker: ado-ado)
Sequence (Q12959 314-412): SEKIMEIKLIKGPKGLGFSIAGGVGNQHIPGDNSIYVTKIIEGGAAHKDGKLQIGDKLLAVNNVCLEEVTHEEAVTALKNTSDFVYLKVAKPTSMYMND

Row | Binder | pKd
1 | VCMGDHWFDV [PRKN, O60260] | below the threshold
2 | KLQNPNQSVV [TYRP1, P17643] | 4.06

molecular target: MAGI2_2, Q86UL8; test: holdup assay; parameters: key: below the threshold = too weak to quantify, mostly under pKd 3.1 to 4; conditions: plain residues with an end cap or a label only (N-terminal biotin on a linker: ado-ado)
Sequence (Q86UL8 410-522): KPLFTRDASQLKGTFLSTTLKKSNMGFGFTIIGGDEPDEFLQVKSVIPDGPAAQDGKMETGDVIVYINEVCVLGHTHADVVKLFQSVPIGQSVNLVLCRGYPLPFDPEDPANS

Row | Binder | pKd
3 | VCMGDHWFDV [PRKN, O60260] | below the threshold
4 | KLQNPNQSVV [TYRP1, P17643] | 4

molecular target: SNX27, Q96L92; test: holdup assay; parameters: key: below the threshold = too weak to quantify, mostly under pKd 3.1 to 4; conditions: plain residues with an end cap or a label only (N-terminal biotin on a linker: ado-ado)

Row | Binder | pKd
5 | VCMGDHWFDV [PRKN, O60260] | 4.14
6 | KLQNPNQSVV [TYRP1, P17643] | 4.04

molecular target: PARD3_3, Q8TEW0; test: holdup assay; parameters: key: below the threshold = too weak to quantify, mostly under pKd 3.1 to 4; conditions: plain residues with an end cap or a label only (N-terminal biotin on a linker: ado-ado)
Sequence (Q8TEW0 582-685): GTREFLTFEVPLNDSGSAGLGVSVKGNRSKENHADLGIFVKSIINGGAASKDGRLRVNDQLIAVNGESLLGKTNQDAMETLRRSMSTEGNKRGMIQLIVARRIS

Row | Binder | pKd
7 | VCMGDHWFDV [PRKN, O60260] | 4.25
8 | KLQNPNQSVV [TYRP1, P17643] | below the threshold

molecular target: T1, ARHGEF11, O15085; test: holdup assay; parameters: key: below the threshold = too weak to quantify, mostly under pKd 3.1 to 4; conditions: plain residues with an end cap or a label only (N-terminal biotin on a linker: ado-ado)

Row | Binder | pKd
9 | VCMGDHWFDV [PRKN, O60260] | 4.18
10 | KLQNPNQSVV [TYRP1, P17643] | 3.9

molecular target: Inadl_2, Q8NI35; test: holdup assay; parameters: key: below the threshold = too weak to quantify, mostly under pKd 3.1 to 4; conditions: plain residues with an end cap or a label only (N-terminal biotin on a linker: ado-ado)
Sequence (Q8NI35 238-335): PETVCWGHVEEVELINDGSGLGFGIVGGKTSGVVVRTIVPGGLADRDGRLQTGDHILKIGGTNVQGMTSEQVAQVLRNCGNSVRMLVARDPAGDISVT

Row | Binder | pKd
11 | VCMGDHWFDV [PRKN, O60260] | 3.51
12 | KLQNPNQSVV [TYRP1, P17643] | below the threshold

molecular target: T2, MPP2, Q14168; test: holdup assay; parameters: key: below the threshold = too weak to quantify, mostly under pKd 3.1 to 4; conditions: plain residues with an end cap or a label only (N-terminal biotin on a linker: ado-ado)

Row | Binder | pKd
13 | VCMGDHWFDV [PRKN, O60260] | below the threshold
14 | KLQNPNQSVV [TYRP1, P17643] | below the threshold

molecular target: GIPC2, Q8TF65; test: holdup assay; parameters: key: below the threshold = too weak to quantify, mostly under pKd 3.1 to 4; conditions: plain residues with an end cap or a label only (N-terminal biotin on a linker: ado-ado)
Sequence (Q8TF65 112-203): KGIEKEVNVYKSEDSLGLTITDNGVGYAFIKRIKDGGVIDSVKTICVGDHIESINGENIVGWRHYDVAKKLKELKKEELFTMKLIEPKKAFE

Row | Binder | pKd
15 | VCMGDHWFDV [PRKN, O60260] | 3.83
16 | KLQNPNQSVV [TYRP1, P17643] | 3.67

molecular target: T3, RADIL, Q96JH8; test: holdup assay; parameters: key: below the threshold = too weak to quantify, mostly under pKd 3.1 to 4; conditions: plain residues with an end cap or a label only (N-terminal biotin on a linker: ado-ado)

Row | Binder | pKd
17 | VCMGDHWFDV [PRKN, O60260] | 4.44
18 | KLQNPNQSVV [TYRP1, P17643] | 4.05

molecular target: LAP2, Q96RT1; test: holdup assay; parameters: key: below the threshold = too weak to quantify, mostly under pKd 3.1 to 4; conditions: plain residues with an end cap or a label only (N-terminal biotin on a linker: ado-ado)
Sequence (Q96RT1 other isoform, or with tags, fused parts or gaps): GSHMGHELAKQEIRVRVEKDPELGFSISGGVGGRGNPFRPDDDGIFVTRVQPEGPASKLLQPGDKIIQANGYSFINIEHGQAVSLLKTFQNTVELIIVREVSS

Row | Binder | pKd
19 | VCMGDHWFDV [PRKN, O60260] | 3.67
20 | KLQNPNQSVV [TYRP1, P17643] | below the threshold

molecular target: T4, LNX2_2, Q8N448; test: holdup assay; parameters: key: below the threshold = too weak to quantify, mostly under pKd 3.1 to 4; conditions: plain residues with an end cap or a label only (N-terminal biotin on a linker: ado-ado)

Row | Binder | pKd
21 | VCMGDHWFDV [PRKN, O60260] | 4.57
22 | KLQNPNQSVV [TYRP1, P17643] | 4.32

molecular target: T5, GRIP1_4, Q9Y3R0; test: holdup assay; parameters: key: below the threshold = too weak to quantify, mostly under pKd 3.1 to 4; conditions: plain residues with an end cap or a label only (N-terminal biotin on a linker: ado-ado)

Row | Binder | pKd
23 | VCMGDHWFDV [PRKN, O60260] | below the threshold
24 | KLQNPNQSVV [TYRP1, P17643] | below the threshold

molecular target: T6, LNX2_3, Q8N448; test: holdup assay; parameters: key: below the threshold = too weak to quantify, mostly under pKd 3.1 to 4; conditions: plain residues with an end cap or a label only (N-terminal biotin on a linker: ado-ado)

Row | Binder | pKd
25 | VCMGDHWFDV [PRKN, O60260] | below the threshold
26 | KLQNPNQSVV [TYRP1, P17643] | below the threshold

molecular target: T7, DLG3_3, Q92796; test: holdup assay; parameters: key: below the threshold = too weak to quantify, mostly under pKd 3.1 to 4; conditions: plain residues with an end cap or a label only (N-terminal biotin on a linker: ado-ado)

Row | Binder | pKd
27 | VCMGDHWFDV [PRKN, O60260] | below the threshold
28 | KLQNPNQSVV [TYRP1, P17643] | below the threshold

molecular target: T8, NHERF3_1, Q5T2W1; test: holdup assay; parameters: key: below the threshold = too weak to quantify, mostly under pKd 3.1 to 4; conditions: plain residues with an end cap or a label only (N-terminal biotin on a linker: ado-ado)

Row | Binder | pKd
29 | VCMGDHWFDV [PRKN, O60260] | below the threshold
30 | KLQNPNQSVV [TYRP1, P17643] | below the threshold

molecular target: GRIP2_5, Q9C0E4; test: holdup assay; parameters: key: below the threshold = too weak to quantify, mostly under pKd 3.1 to 4; conditions: plain residues with an end cap or a label only (N-terminal biotin on a linker: ado-ado)
Sequence (Q9C0E4 544-642): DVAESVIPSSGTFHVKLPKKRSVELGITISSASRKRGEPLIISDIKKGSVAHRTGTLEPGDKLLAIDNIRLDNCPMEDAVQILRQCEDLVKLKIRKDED

Row | Binder | pKd
31 | VCMGDHWFDV [PRKN, O60260] | below the threshold
32 | KLQNPNQSVV [TYRP1, P17643] | below the threshold

molecular target: MAST2, Q6P0Q8; test: holdup assay; parameters: key: below the threshold = too weak to quantify, mostly under pKd 3.1 to 4; conditions: plain residues with an end cap or a label only (N-terminal biotin on a linker: ado-ado)
Sequence (Q6P0Q8 1099-1202): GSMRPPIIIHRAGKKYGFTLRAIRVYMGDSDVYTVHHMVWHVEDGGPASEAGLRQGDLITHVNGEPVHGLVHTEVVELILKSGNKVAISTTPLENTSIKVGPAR

Row | Binder | pKd
33 | VCMGDHWFDV [PRKN, O60260] | 4.85
34 | KLQNPNQSVV [TYRP1, P17643] | 4.7

molecular target: FRMPD4, Q14CM0; test: holdup assay; parameters: key: below the threshold = too weak to quantify, mostly under pKd 3.1 to 4; conditions: plain residues with an end cap or a label only (N-terminal biotin on a linker: ado-ado)
Sequence (Q14CM0 67-160): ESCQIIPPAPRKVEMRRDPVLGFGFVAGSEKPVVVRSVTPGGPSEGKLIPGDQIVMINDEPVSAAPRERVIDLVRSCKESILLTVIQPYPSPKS

Row | Binder | pKd
35 | VCMGDHWFDV [PRKN, O60260] | 3.86
36 | KLQNPNQSVV [TYRP1, P17643] | below the threshold

molecular target: NOS1, P29475; test: holdup assay; parameters: key: below the threshold = too weak to quantify, mostly under pKd 3.1 to 4; conditions: plain residues with an end cap or a label only (N-terminal biotin on a linker: ado-ado)
Sequence (P29475 9-101): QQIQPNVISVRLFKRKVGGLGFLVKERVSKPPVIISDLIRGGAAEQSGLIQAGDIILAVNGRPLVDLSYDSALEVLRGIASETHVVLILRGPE

Row | Binder | pKd
37 | VCMGDHWFDV [PRKN, O60260] | 3.51
38 | KLQNPNQSVV [TYRP1, P17643] | below the threshold

molecular target: T9, LIN7B, Q9HAP6; test: holdup assay; parameters: key: below the threshold = too weak to quantify, mostly under pKd 3.1 to 4; conditions: plain residues with an end cap or a label only (N-terminal biotin on a linker: ado-ado)

Row | Binder | pKd
39 | VCMGDHWFDV [PRKN, O60260] | below the threshold
40 | KLQNPNQSVV [TYRP1, P17643] | below the threshold

molecular target: IL16_3, Q14005; test: holdup assay; parameters: key: below the threshold = too weak to quantify, mostly under pKd 3.1 to 4; conditions: plain residues with an end cap or a label only (N-terminal biotin on a linker: ado-ado)
Sequence (Q14005 1107-1207): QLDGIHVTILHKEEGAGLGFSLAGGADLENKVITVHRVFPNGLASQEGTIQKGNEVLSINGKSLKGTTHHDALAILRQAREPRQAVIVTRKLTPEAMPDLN

Row | Binder | pKd
41 | VCMGDHWFDV [PRKN, O60260] | below the threshold
42 | KLQNPNQSVV [TYRP1, P17643] | below the threshold

molecular target: IL16_4, Q14005; test: holdup assay; parameters: key: below the threshold = too weak to quantify, mostly under pKd 3.1 to 4; conditions: plain residues with an end cap or a label only (N-terminal biotin on a linker: ado-ado)
Sequence (Q14005 1229-1329): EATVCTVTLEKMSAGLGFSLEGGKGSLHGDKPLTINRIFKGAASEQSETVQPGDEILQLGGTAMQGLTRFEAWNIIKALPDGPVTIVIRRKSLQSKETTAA

Row | Binder | pKd
43 | VCMGDHWFDV [PRKN, O60260] | below the threshold
44 | KLQNPNQSVV [TYRP1, P17643] | below the threshold

molecular target: T10, DVL3, Q92997; test: holdup assay; parameters: key: below the threshold = too weak to quantify, mostly under pKd 3.1 to 4; conditions: plain residues with an end cap or a label only (N-terminal biotin on a linker: ado-ado)

Row | Binder | pKd
45 | VCMGDHWFDV [PRKN, O60260] | 3.59
46 | KLQNPNQSVV [TYRP1, P17643] | below the threshold

molecular target: T11, GRIP1_5, Q9Y3R0; test: holdup assay; parameters: key: below the threshold = too weak to quantify, mostly under pKd 3.1 to 4; conditions: plain residues with an end cap or a label only (N-terminal biotin on a linker: ado-ado)

Row | Binder | pKd
47 | VCMGDHWFDV [PRKN, O60260] | below the threshold
48 | KLQNPNQSVV [TYRP1, P17643] | below the threshold

molecular target: TJP2_1, Q9UDY2; test: holdup assay; parameters: key: below the threshold = too weak to quantify, mostly under pKd 3.1 to 4; conditions: plain residues with an end cap or a label only (N-terminal biotin on a linker: ado-ado)
Sequence (Q9UDY2 24-128): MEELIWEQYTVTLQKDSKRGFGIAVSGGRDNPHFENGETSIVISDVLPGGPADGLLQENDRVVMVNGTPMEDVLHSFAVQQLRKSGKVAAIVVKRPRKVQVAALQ

Row | Binder | pKd
49 | VCMGDHWFDV [PRKN, O60260] | below the threshold
50 | KLQNPNQSVV [TYRP1, P17643] | below the threshold

molecular target: T12, TIAM2, Q8IVF5; test: holdup assay; parameters: key: below the threshold = too weak to quantify, mostly under pKd 3.1 to 4; conditions: plain residues with an end cap or a label only (N-terminal biotin on a linker: ado-ado)

Row | Binder | pKd
51 | VCMGDHWFDV [PRKN, O60260] | below the threshold
52 | KLQNPNQSVV [TYRP1, P17643] | below the threshold
